Experimental findings from US20100233154A1, “TARGETED BINDING AGENTS DIRECTED TO HEPARANASE AND USES THEREOF 463” (MedImmune Limited, priority 2008, published 2010) are described below.

For assay [1], the system named is precursor (65 kDa) and active (50 kDa) heparanase. Put plainly: Immunoprecipitation and Western blotting of heparanase from cell lysates. It counts as binding, human. The conditions noted are these: 10 μg antibody, 400 μg lysate, MCF7 and MDA MB231 parental and heparanase transfected cells. The method, then: Briefly, protein lysates (400 μg in RIPA lysis buffer—137 mM NaCl, 20 mM Tris pH7.4, 10% glycerol, 1% Triton, 0.5% Sodium deoxycholate, 0.1% SDS, 2 mM EDTA, 1 mM dithiothreitol, 4 mM pefabloc, 10 mM glycerol-2-phosphate, 5 mM NaF and protease inhibitor cocktail) from both parental and heparanase transfected cells were incubated with 10 μg IgG2 control or anti-heparanase (10E9.1) antibodies for 1 hour at 4° C. Following immunoprecipitation with protein G agarose beads and washing with RIPA buffer, samples were separated on 10% bis-tris gels and transferred to nitrocellulose for Western blotting. Heparanase was detected using an anti-heparanase polyclonal antibody (Biochain Cat. No. Z5010104), that recognises both precursor and active heparanase.
(In western blotting, separated proteins are transferred to a membrane and probed.)

Assay [2] has as its system HCT116 human colorectal tumour cells. Put plainly: FACS binding to cell surface heparanase, HCT116. It counts as cell-based. The conditions noted are these: 5 or 10 μg per ml, 2 hrs at 37° C. As for the experimental part:
Although heparanase is found as a secreted protein, a proportion of heparanase is found in conjunction with cell surface heparan sulfate. The ability of anti-human heparanase antibodies to bind to cell surface heparanase was tested in a FACS assay. HT1080 human fibrosarcoma cells, HCT116 human colorectal tumour cells and B16F10 AP3 murine melanoma cells were each seeded into 6-well plates and cultured for 48 hrs prior to the addition of anti-heparanase antibody 10E9.1 or control IgG2 antibody (Sigma Cat. No. 1504-1MG). Antibodies were added to the cells to a final concentration of 5 or 10 μg per ml and incubated with the cells for 2 hrs at 37° C. The cells were then washed with phosphate buffered saline (PBS) and harvested by incubation with trypsin. The cells were pelleted by centrifugation and resuspended in 0.5 ml PBS, 0.1% BSA containing 1/200 dilution of AlexaFluor 488 anti-human IgG. The cells were incubated for 1 hr at room temperature, washed with PBS/BSA, resuspended in PBS and analysed by FACS. […] The differences likely reflect a lower affinity for murine heparanase in addition to any differences in absolute heparanase expression.

Assay [3] deals with T1, recombinant human heparanase (Homo sapiens, UniProt Q9Y251).
T1 construct: Heparanase 8 and 50 kDa sub-units were cloned into pacGP67 as Sma 1-EcoR1 fragments; made in house; host or cells: Hi5 insect cells, baculovirus (pFastBac Dual)
T1 sequence (Q9Y251 158-543 limits assumed): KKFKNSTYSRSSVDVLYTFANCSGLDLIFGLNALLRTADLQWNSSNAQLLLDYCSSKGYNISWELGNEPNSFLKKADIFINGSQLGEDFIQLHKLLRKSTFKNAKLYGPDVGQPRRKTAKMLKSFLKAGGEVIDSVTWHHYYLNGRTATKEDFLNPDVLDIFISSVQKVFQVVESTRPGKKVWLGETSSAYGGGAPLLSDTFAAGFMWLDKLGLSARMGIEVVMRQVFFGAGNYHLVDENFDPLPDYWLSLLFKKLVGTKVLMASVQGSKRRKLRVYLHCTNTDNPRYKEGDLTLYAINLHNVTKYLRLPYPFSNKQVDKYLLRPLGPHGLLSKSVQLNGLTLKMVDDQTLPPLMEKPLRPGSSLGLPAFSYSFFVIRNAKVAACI
T1 sequence (Q9Y251 36-109 limits assumed): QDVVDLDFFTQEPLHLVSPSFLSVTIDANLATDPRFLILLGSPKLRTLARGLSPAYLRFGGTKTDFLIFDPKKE
Briefly: ELISA binding to directly coated recombinant human heparanase. As for the experimental part: Titres of antibodies from Campaigns 1 and 2 were determined in an ELISA. Costar 3368 medium binding plates were coated directly with recombinant human heparanase or plates were coated with Rabbit anti-heparanase antibody (Raybiotech, Cat. IP-14-155) to capture recombinant heparanase. Directly coated heparanase was detected in three separate plates by mouse (InSight Cat. INS-26-1-0000), goat (Santa Cruz, Cat. sc26136) or rabbit (Raybiotech, Cat. IP-14-155) anti-heparanase antibodies, and quantified using appropriate secondary antibodies. Antibody captured heparanase was detected using mouse anti-heparanase (Insight Cat. INS-26-1-0000). At the end of the immunisation program, fusions were performed using mouse myeloma cells and lymphocytes isolated from the spleens and lymph nodes of the immunised mice by means of electroporation, as described in Example 2.
Initial screening to detect antibodies binding to human heparanase in both direct coating and antibody capture ELISAs as described above identified 800 hybridomas for further testing; 535 IgG2 from Campaign 1 and 2 and 265 IgG4 from Campaign 2. Enzyme inhibition assays and cross species binding to cynomolgus and murine heparanase, in an antibody capture ELISA, identifed 12 antibodies that were taken forward for sub-cloning to provide purified antibodies for further analysis. Subsequently, confirmation of activity against human heparanase (FIGS. 3 and 4) and inhibition of recombinant cynomolgus and murine heparanase activity in the HS-cryptate degradation assay (FIG. 5a-c), together with sequence analysis, identified 8 antibodies that are described in the table below.

Assay [4] relates to HCT116 xenograft. Put plainly: Subcutaneous xenograft tumour growth, HCT116. Format: in vivo, SCID mice. As to conditions: once weekly i.p.; 10E9.1 at 15 mg per kg. As for the experimental part: MCF7-Hpa1#19 and HCT116 tumour cells were harvested from sub-confluent cultures. A total of 5×10^6 (MCF7-Hpa1#19) or 10^7 (HCT116) tumour cells were inoculated subcutaneously into the flank of male SCID mice. HCT116 tumour cells were implanted in PBS; […] cells were implanted in PBS containing 50% matrigel.
When tumours had attained ˜200 mm^3, tumour bearing mice were randomised into treatment groups and dosed with the following; PBS; an isotype matched control IgG2 antibody, 15 mg per kg; anti-heparanase antibody 10E9.1, 7.5 or 15 mg per kg. All treatments were administered once weekly i.p. Tumour growth was measured twice per week using calipers and tumour volumes calculated according to an ellipsoid volume is formula (3.142/6×length×width×width) from measures of the largest tumour diameter and two opposing widths (FIG. 11).

Assay [5] deals with cynomolgus heparanase. Briefly: Cross species capture ELISA, cynomolgus heparanase. Format: binding. The conditions noted are these: min 0.06, max 1.5 OD units. The method, then: Initially, cross species binding to human, murine and cynomolgus heparanase was determined in an ELISA assay in which heparanase was captured onto plates using a rabbit anti-heparanase antibody (Raybiotech, Cat. IP-14-155). Exhaustive supernatants were added to the plates at a final dilution of 1:5 and bound antibody detected with a rabbit anti-human IgG Fc.
In general terms: In an ELISA, binding on a coated surface is turned into a signal by an enzyme label.

B1: 10E9.1: fully human anti-heparanase monoclonal antibody, G2κ; VH SEQ ID NO 2, VL SEQ ID NO 4; ATCC PTA-9489 (antibody, listed as Homo Sapiens, V domains shown)
VH: QVQLVQSGAEVKKPGASVKVSCKVSGYSLTELSIHWVRQAPGKGLEWMGGFDPEDGEIIFAQKFQGRVTLTEDISLDTAYMEVSSLRSEDTAVYYCATEGHDSGDYVGYYYYGLDVWGQGTTVTVSS
VL: DIQMTQSPSSLSASVGDRVTITCRASQDIRNFLAWYQQKPGKLPKLLIYAASTLQSGVPSRFSGSGSGTDFTLTISSLQPEDVASYYCQSHNSVPFTFGPGTKVDIR
notes: fully human anti-heparanase monoclonal antibody, G2κ; ATCC PTA-9489
In the case of B1, the “Immunoprecipitation of heparanase from cell lysates” value in assay [1] was “immunoprecipitation of both precursor and active forms of heparanase”. In addition, in assay [2], the “Binding to cells by FACS” value is recorded as “bind extensively”. Also, in assay [3], the “Binding to direct coated heparanase” value was found to be 0.2 OD units. Moreover, the Tumour growth inhibition result in assay [4] is reported as “not inhibited”. Besides, the “Binding to heparanase Cyno” value in assay [5] is given as 1.4 OD units.
